Experimental data published in paper doi:10.1101/151043 (bioRxiv, 2017).

Experiments:
[1] = biological target: recombinant human serum albumin from S. cerevisiae, biotin labelled (Homo sapiens, UniProt P02768, EZ-Link NHS-PEG4-Biotin labelled); assay: SPR
mouse serum albumin = mouse serum albumin (Mus musculus, UniProt P07724, EZ-Link NHS-PEG4-Biotin labelled); assay: SPR
mouse serum albumin, sequence (P07724 25-608): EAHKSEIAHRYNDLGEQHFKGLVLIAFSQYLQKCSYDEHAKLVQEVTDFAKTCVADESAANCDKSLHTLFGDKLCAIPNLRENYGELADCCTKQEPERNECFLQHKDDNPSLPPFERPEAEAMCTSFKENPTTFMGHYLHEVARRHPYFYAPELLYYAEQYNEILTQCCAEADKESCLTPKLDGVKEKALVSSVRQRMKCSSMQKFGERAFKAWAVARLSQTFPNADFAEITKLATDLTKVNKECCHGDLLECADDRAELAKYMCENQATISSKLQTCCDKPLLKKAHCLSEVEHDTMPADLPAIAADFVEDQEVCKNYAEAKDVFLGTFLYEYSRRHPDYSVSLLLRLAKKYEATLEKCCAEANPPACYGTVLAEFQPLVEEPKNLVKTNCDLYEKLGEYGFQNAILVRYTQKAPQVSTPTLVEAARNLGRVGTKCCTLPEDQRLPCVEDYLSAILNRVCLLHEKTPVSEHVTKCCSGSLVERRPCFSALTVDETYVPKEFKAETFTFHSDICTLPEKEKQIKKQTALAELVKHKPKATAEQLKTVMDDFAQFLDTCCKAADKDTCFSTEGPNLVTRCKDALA

recombinant human serum albumin from S. cerevisiae, biotin labelled, sequence (P02768 25-609): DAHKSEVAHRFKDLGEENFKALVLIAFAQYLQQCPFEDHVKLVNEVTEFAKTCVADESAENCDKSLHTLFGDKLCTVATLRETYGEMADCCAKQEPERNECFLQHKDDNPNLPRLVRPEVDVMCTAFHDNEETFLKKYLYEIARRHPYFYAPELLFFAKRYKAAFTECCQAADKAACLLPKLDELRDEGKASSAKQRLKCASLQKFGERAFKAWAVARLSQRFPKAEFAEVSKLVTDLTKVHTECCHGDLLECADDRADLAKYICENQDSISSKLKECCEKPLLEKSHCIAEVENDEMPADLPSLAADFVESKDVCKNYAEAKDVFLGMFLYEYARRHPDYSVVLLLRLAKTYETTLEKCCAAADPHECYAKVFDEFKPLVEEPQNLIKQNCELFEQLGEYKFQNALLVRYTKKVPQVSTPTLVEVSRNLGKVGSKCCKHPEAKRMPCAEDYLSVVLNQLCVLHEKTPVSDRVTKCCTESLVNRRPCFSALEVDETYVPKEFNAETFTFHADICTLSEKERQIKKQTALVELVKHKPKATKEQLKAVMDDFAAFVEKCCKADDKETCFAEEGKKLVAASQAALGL

B1: Nb.b201 (VHH)
VHH: QVQLQESGGGLVQAGGSLRLSCAASGYISDAYYMGWYRQAPGKEREFVATITHGTNTYYADSVKGRFTISRDNAKNTVYLQMNSLKPEDTAVYYCAVLETRSYSFRYWGQGTQVTVSS
Kd [1]: 430 nM | binding result (mouse serum albumin): no binding
